Patent US20050288492A1 (MEDICAL RESEARCH COUNCIL, published 2005)

T1: LexA DBD (made from the empty pBTM116 vector) (UniProt P0A7C2 1-202)
T1 construct: domain: LexA DBD; Yeast bait control
T1 sequence (looked up): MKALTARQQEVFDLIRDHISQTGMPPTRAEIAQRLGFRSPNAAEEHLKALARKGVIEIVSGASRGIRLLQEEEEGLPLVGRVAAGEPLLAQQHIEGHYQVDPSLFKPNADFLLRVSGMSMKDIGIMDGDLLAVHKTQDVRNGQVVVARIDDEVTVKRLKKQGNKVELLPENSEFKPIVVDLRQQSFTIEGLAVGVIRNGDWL

B1: anti-RAS scFv33 (scFv)
scFv: QVQLVEAGGGLVQPGGSLRLSCAASGFSFSTFSMNWVRQAPGKGLEWVSYISSSGRTIYYADSVKGRFTISRDNAKNSLYLQMNSLRDEDTAVYYCARGRFFDYWGQGTLVTVSSGGGGSGGGGSGGGGSDIVMTQSPSFLSASVGDRVTITCRASQSISRYLNWYQQKPGKAPKLLIYAASSLQSGVPSRFSGSGSGTDFTLTISSLQPEDFAIYYCQQSYSTLLTFGGGTKLEIKR
notes: ELISA and BIAcore: purified from periplasm with C-terminal His6-tag and myc-tag; Two-hybrid: fused to VP16 AD; Co-location: with nls and myc-tag; also called ICAb 33
B2: anti-RAS scFv J48 (scFv)
scFv: QVQLVEAGGGLVQPGGSLRLSCAASGFSFSYLYMNWVRQAPGKGLEWVSYISSSGRTIYYADSVKGRFTISRDNAKNSLYLQMNSLRDEDTAVYYCARGRFFDYWGQGTLVTVSSGGGGSGGGGSGGGGSDIVMTQSPSFLSASVGDRVTITCRASQSISRYLNWYQQKPGKAPKLLIYAASSLQSGVPSRFSGSGSGTDFTLTISSLQPEDFAIYYCQQSYSTLLTFGGGTKLEIKR
notes: Same formats as scFv33 (His6/myc purified; VP16 fusion; nls-myc)
B3: IDab anti-RAS #6 (other)
VH: EVQLLESGGGLVQPGGSLRLSCAASGFSFSTFSMNWVRQAPGKGLEWVSYISRTSKTIYYADSVKGRFTISRDNSKNTLYLQMNSLRAEDTAVYYCARGRFFDYWGQGTLVTVSS
B4: anti-RAS scFv I21 (scFv)
scFv: EVQLLESGGGLVQPGGSLRLSCAASGFTFSSYAMSWVRQAPGKGLEWVSTISYGGSNTNYADSVKARFTISRDNSKNTLYLQMNSLRAEDTAVYYCAKGNNAFDYWGQGTLVTVSSGGGGSGGGGSGGGGSTDIQMTQSPSSLSASVGDRVTITCRASQSISSYLNWYQQKPGKAPKLLIYNASALQSGVPSRFSGSGSGTDFTLTISSLQPEDFATYYCQQYTSTPRTFGQGTKVEIKR
notes: also called ICAb I21
B5: IDab 33 (single VH domain of anti-RAS scFv33) (other)
VH: QVQLVEAGGGLVQPGGSLRLSCAASGFSFSTFSMNWVRQAPGKGLEWVSYISSSGRTIYYADSVKGRFTISRDNAKNSLYLQMNSLRDEDTAVYYCARGRFFDYWGQGTLVTVSS
notes: also called 33VH; VH from intrabody anti-RAS scFv33
B6: IDab anti-RAS #12 (other)
VH: EVQLLESGGGLVQPGGSLRLSCAASGFSFSVWAMSWVRQAPGKGLEWVSYISRTSKTIYYADSVKGRFTISRDNSKNTLYLQMNSLRAEDTAVYYCARGRFFDYWGQGTLVTVSS
B7: IDab anti-RAS #3 (other)
VH: QVQLVESGGGLVQPGGSLRLSCAASGFTFSSYAMHWVRQAPGKGLEWVSVISKLTHHTYYADSVKGRFTISRDNSKNTLYLQMNSLRAEDTAVYYCARGVQGYVHGLKGNWFDYWGQGTLVTVSS
notes: also called anti-RAS clone #3; clone 3

Legend:
[1] = target: β-galactosidase (non-relevant antigen bait in yeast) (UniProt P00722 1-1024 = β-galactosidase, limits assumed); test: yeast two-hybrid, scFv-VP16 prey (data not shown)
[2] = target: T1, LexA DBD (made from the empty pBTM116 …); test: yeast two-hybrid, scFv-VP16 prey (data not shown)
[3] = target: T2, Recombinant activated HRAS (G12V; residues 1-166), GppNp-bound (human, UniProt P01112 1-166, loaded with 5'-guanylylimidodiphosphate (GppNp), a non-covalent nucleotide); test: SPR, BIAcore 2000; HRASG12V-GppNp immobilised, purified scFv injected; BIAevaluation 2.1
T2 construct: range 1-166; Antigen of the ELISA and BIAcore assays; also called HRASG12V-GppNp; RASG12V-GppNp

BSA = target: T3, BSA (bovine, UniProt P02769); test: ELISA; BSA coated at 30 mg/ml, purified His-tagged scFv, detection with HRP anti-polyhistidine, absorption 450-650 nm
T3 construct: coated on the ELISA plate at 30 mg/ml as control antigen; also called bovine serum albumin

[4] = target: T2, Recombinant activated HRAS (G12V; …); test: SPR (BIAcore 2000), purified His-tagged fragment on RAS antigen
[5] = target: T2, Recombinant activated HRAS (G12V; …); test: SPR (BIAcore 2000), HRASG12V-GppNp immobilised (about 1500 RU), purified scFv as analyte, Example 4; Example 4, BIAcore, FIG. 6B
[6] = target: T2, Recombinant activated HRAS (G12V; …); test: SPR (BIAcore 2000), Example 12
[7] = target: T4, Gal4 DBD fused to HRASG12V (codons 1-166) (mammalian bait from pM1-HRASG12V) (UniProt P04386 1-147; P01112 1-166); test: cell-based or functional assay
[8] = target: HRASG12V expressed in NIH3T3 cells from pZIPneoSV(X)-HRASG12V (UniProt P01112 1-186, limits assumed); test: cell-based or functional assay
[9] = target: T2, Recombinant activated HRAS (G12V; …); test: SPR (BIAcore 2000), HRASG12V-GppNp immobilised (about 1500 RU), purified scFv as analyte, Example 4
[10] = target: T4, Gal4 DBD fused to HRASG12V (codons …); test: COS7 luciferase reporter with HRAS, KRAS or NRAS (data not shown)

Binder	binding result [1]	binding result [2]	Kd [3] [nM]	koff [3] [s⁻¹]	kon [3] [M⁻¹ s⁻¹]	binding result (BSA)	koff [4] [s⁻¹]	kon [4] [M⁻¹ s⁻¹]	Kd [5] [nM]	Kd [6] [nM]	luciferase reporter activation in COS7 cells [7] [fold]	transforming activity in NIH3T3 cells, relative to HRASG12V alone [8] [%]	Kd [9] [nM]	binding result [10]
B1	no binding	no binding	9.97	0.00113	176000	no binding (tested: 450 ng per well (legend))	0.00113	176000	1.39	~10	> 10	–	–	–
B2	no binding	no binding	2.6	0.00482	1.87e+06	no binding (tested: 450 ng per well (legend))	–	–	3.63	–	> 10	–	–	–
B3	–	–	–	–	–	–	–	–	–	–	–	< 10	–	–
B4	no binding	no binding	1310	0.0212	16700	no binding (tested: 450 ng per well (legend))	–	–	–	–	–	–	2160	–
B5	–	–	–	–	–	–	0.0144	12500	–	~90	–	–	–	–
B6	–	–	–	–	–	–	–	–	–	~26	–	–	–	binds
B7	–	–	–	–	–	–	0.00104	5660	–	~180	–	–	–	–
